Test results taken from the DeepSol protein solubility set.

Assay: soluble on expression in E. coli; label from the status in PepcDB or PDB records
With “LTQPLDHRHPEKGSFRQRVIVGHVGYDRPTVIVTEGYGAGYALRPTYREELSELFDANMIFVEHRYFLESTPEPCDWQYLTAENSAEDLHAVTTAFKTLYPGKWISTGISKGGQTSLLYRVFFPDDVDVSVPYVAPLCYAREDGRHEPFLRRVGTEADRKKIEDFQLEVLKRKARLLPRFEKMCTEKNYTFRAPLEEIYDFCVLEYSFSIWQWGTDIRSIPETSASDDTLLDHLLAISGPSYFIVDSPTLSFFVQAARELGYYGYDIAPFKPYLSIKTSKDYLRRLMLPEDMRKMKFDKTLSNKIVRFLKKNDPKMIFIYGQNDPWTAAGVTWLKNKKNIHVFVEPGGSHLARIGTMSEDQKQKVMSLLRGWLEE” the “soluble on expression in E. coli” value was “not soluble”. In the case of “KDEIGVIGIDDAPFNKFDKEALIVGTYMRGNKLVDEISFKKIEKDGFDSTEKILKIVKDKHFTKINAIFLDGVTFGGFNIADIVKIYNETKIPVIAVMEKEPDLLKMKSALKKYFFDFPEKIEMLESFPKPEPFENIFIQCIGISFEDACKLIKKTRLRSKIPECLRISHLVGRGFLNME”, the “soluble on expression in E. coli” value is reported as “not soluble”. For “MSEDRSSNGHKSWLDKITQAFAHEPRNRQELLELLRDAHDNKLLDSEALSIVEGAIQVADLQVRDIMVPRSQMMSIRSTQTPKEFLPAIIEAAHSRYPVVGESLDDVMGVLLAKDLLPLILHNDERPFDIKELLRPATFVPESKRLNVLLREFRANRNHMAIVIDEYGGVAGLVTIEDVLEQIVGDIEDEHDVEEDSYIKPLPSGDFIVKALTPVDAFNDFFGSEFSDEEFDTVGGLVMSAFGHLPKRNEVVELGEFRFRVLNADSRRVHLLRLSPLQN”, the “soluble on expression in E. coli” value was “soluble”. For “EAEEDGDLQCLCVKTTSQVRPRHITSLEVIKAGPHCPTAQLIATLKNGRKICLDLQAPLYKKIIKKLLES”, the “soluble on expression in E. coli” value was “soluble”. In the case of “MCMQAQDVTIRDQEIKLGQFIKLANLVETGGAAKEVIAEGRVTVNGAVDTRRGKTLRDGDVVCIGTACARVVAGAADDDDYFDEKTANDDFDPEVWRNM”, the “soluble on expression in E. coli” value is reported as “not soluble”. In the case of “MRIEVKLLPLKDNPILPFNYNYEVYSQILEKVNSIEPTIAKLLSSPHGFWTFSRIIVRKRKILPDKGIEILSDDVSLYISSSNEDIIRAIAEAVEKSPEFKIGELSFLVGDIKAIKVKELGKENVFSTLSPIVVRTVKFEGNKLRHWDLYPHDELFMDRLRKVMILRYSEVMGETPKDRDFTIEVLKFKPTRLMVGSSYIRGSLMVFRYAGSEEIARFGYENGFGEKTGLGFGMVKLIE”, the “soluble on expression in E. coli” value is reported as “soluble”. For “SLNVVLIVEDEILEQEFLKTMVLGELSPEDKVLTTESGIQAVQLAKQHRPNIIIMDLMIAEVDGLTAIQDIRKFLPNACITILSAYSDFSYAQKAINLKVFEYLLKPVKPSAFKEIFKKMLEIAHEESMISEPIEKTFLPLQEEHQSFIQESVTYIQEHFKEKLTLEMTASRVFMNPKYFSRVFKKEMGISFTEFIIQLRIQYACRLLETTNYPAYRISSECGFSDPSYFNRVFCAQLNMTPQTYRKNSQAQQHEG”, the “soluble on expression in E. coli” value was “soluble”. In the case of “MSLLRAIIVDNEEPATQILQMLLEKTGQIRVVGTFLRAADALSSLRLTKPDVAFLDIEIPDTSGLELANHILAMDSDVEIIFVTAYDHYALHAFRVNALDYLLKPLLPEDVERAVRRLIKRKGLAKDSAPESPLGANIHYFGKFSVYGPASKKPVKWRTSKAEELFAYLVQNLEKEVPKWRICEALWPEYHSEKVDIQLHTTVYKLKKVLTAANIPFDLSFSNGCYWLSLPQAAIDKVEFDAHIASSVPVNQSTIARCEHALSLYTGDYLEENGYLWSLALKAEYGQKFYKLASSVVNFYMTQGDWVRAEKILRSILERCPLDETVHEMLLTCYFTQKDRTAFITHYHTVRKLFQAELGLEPGKSIQTLYHSLLKRMDEGHHHHHH”, the “soluble on expression in E. coli” value is reported as “soluble”. For “MIVTVTMNPSIDISYLLDHLKLDTVNRTSQVTKTPGGKGLNVTRVIHDLGGDVIATGVLGGFHGAFIANELKKANIPQAFTSIKEETRDSIAILHEGNQTEILEAGPTVSPEEISNFLENFDQLIKQAEIVTISGSLAKGLPSDFYQELVQKAHAQEVKVLLDTSGDSLRQVLQGPWKPYLIKPNLEELEGLLGQDFSENPLAAVQTALTKPMFAGIEWIVISLGKDGAIAKHHDQFYRVKIPTIQAKNPVGSGDATIAGLAYGLAKDAPAAELLKWGMAAGMANAQERMTGHVDVENVKKHLMNIQVVEIAK”, the “soluble on expression in E. coli” value was “not soluble”. For “MATVKIKFRPSSVDGKEGTVYYQVIHVRVARQISTSYRLFPAEWDKRRARIVAAPSDEGRRQHLSLLEGKIMEDTDRLEGIITTLERRRGAFTADDVVSAFNGGHYSLSFPVFMREVINGLKRLGKIRTSETYTSTLNSFIRFMEGRDVLPDDMDSDLMVAYEAWLESGGVSMNTISFYMRNLRAVYNRAVEKGLTVQRFPFKHVYTGVEKTTKRAVPLHVIKRLKSLDLSFEPAKAYARDMLLFSFYTRGMSMVDMAFLKKKDLNNGILSYRRKKTGQQLLIKWEPCMQEIVDRYNIPGSPYLLSVIDRPGTDERKQYINASHRINRHLKVLGKELGMSVPLTHYVARHSWASAARSKNIPISVISEGMGHDSETTTRIYLASLDTATIDRANKLILKSLQI”, the “soluble on expression in E. coli” value was “not soluble”. With “MQSTVAFISHRSTHKDFVRKIVDTVKRDNCIVDEFDFYPATKTVNEIVRNLNFAPIFVLLISKDALESDWIKLEMSKARQLYDTGVIREFMPFIIEEGVKLEELPSWMTRDWSLNIKTITSPKIIGQFIIETQRKIRCVGNNAYGNWINTFIGRSNELDEFQRAMYDSVYMPHRSLIVSGKPGSGRTRFIQKCIQDSSGLSFIPEGFQIKLPQKTYLDNFILQLHEGLGFSKASYEDILKLDHEHQITKCVSYINQIINAHSFLLIEDEMSFVSYDGTISEWGKEIISHPAMIDSLKIFISSRVKPRYSELRAYPQIIHINLSGFTKDERKRLFVNCCRYYNVQLNDSDVDFFVDRLQSSPQQLEQAVREIKDKNVRFAKKDIKNLIAIGDEVFSRVISWFKGDETALTLAKVLAEVDMISFDLLEQLYEEDYPKIEQLVNNFESLSILDFYGPGGNNISLDGGVSDYIRRSKLDLDPIMKTRIEEIIFNKIDTAEDDLGELSIFLHDLRKQLLSGKGFAYVMPSIVISTVIDLYNQGSYDSVKDICLHALEHCSSYTEEPLQELYYRLCQVLARMKDRIFFTYIDKIKDKGSKDFLYGFYYRYKEDYSKAEEYLLKALDFNSNMQIARRELVNVYLNQEKYTKALPLAKENYNRKSTNSYHIEAYFRCLLNHYPWNTETEDTLNRLLKEMEENFSKRKDELLASMQLEYFIKSRNHTKEEIKEKIQETLIVYPNSPQVYRIKEEFERDKSRFCKSCNC” the “soluble on expression in E. coli” value was “not soluble”. With “MTSSPARNGDISFWYADIGGVPQPRPPLAGDARADVCIVGAGYTGLWTALYLKEQAPELEVLVLEKEFAGFGASGRNGGWLTGSFAWTHDRYLSTGTAEGVRAMVTAMSGTVDEVIRVAEAEGIDADIHRTDELMVAVTPAQRARAEAEVRHRQSWGEERVSFLEADAVARRIRIPKAEGAMVVGGVARVQPAKLVRGLAEAAERRGVRIAEGTEVLGIAPGRVETRRGTVQAPIILRATEGFTATLPGAKRDWLPLNSAQIVTEPLPPEIWDRIGWEGAEILGDMANAYCYCQRTREGRIAVGARGRAYRMASRIDERGEADAVTVAHLLKRLQRHFPAAADARIDHSWCGVLGVPRDWCATVGLDPTTGIGWAGGYVGVGVSTSNLAGRTLADLALKRDTALTRLPWVNRRVRRWEPEPLRWLGVRGMYRLLEAADRREEAGGPPSWLAALGHRIAGRLEHHHHHH” the “soluble on expression in E. coli” value was “not soluble”. In the case of “MAHHHHHHMTITLDSFNEQKVHNNQNKRKYNCRLNFKRFTKRRNNYNEDNRDSKINIKTALIKNEVISDDNDEFIDSNLMRTCHRFRLYKHSSNKIDIYYPYDKKKLDKYDYERDQTFCSLTDIEDVVNNGDDKSSKFFYYKNKSLNDYKSCFEKKNKKTKWFRLRKKKKKDHAMDESLKYLNESVCSNYKEANKNNKLDNSSKYSKNCVINTTVNGIRGFSAWIF”, the “soluble on expression in E. coli” value is reported as “not soluble”. For “EFSLSTLLEMTVGLASGANNEERFHRLLDAVRKAVICDCVVLMSLHNDTLTPLAMQGLTRDTLGRRFVVSEHPRLAQICSADLPVRFAADCPLPDPFDGLLLDSEDDLPMHSCMGLPLHFGEQLLGILTLDSLKPDAFDHLSPRSLEILAAIAAATLKMTLTFSELENQAKQTQLRLEELNQEAWSRDSVE”, the “soluble on expression in E. coli” value was “not soluble”. With “TFGEEESEACKKAFDLSPFPLLSKQKEAVFTAIESSISAIIGGAGTGKTTVLHAVLTAFEALGYVSDASLCPDKTTTNHNIKTMALSCRAAKRMRDCINKSSDGSRRERQISATSIAQFIHQTVIEDAEGKYLVVIDEASMLDVATMYNIITNIHPNVRILLVGDHYQLPPI” the “soluble on expression in E. coli” value was “not soluble”.
